Measurements as given in IntAct's records for PubMed 26586190.

B1: Sestrin-2 (Homo sapiens), P58004 (parent)
chain: MIVADSECRAELKDYLRFAPGGVGDSGPGEEQRESRARRGPRGPSAFIPVEEVLREGAESLEQHLGLEALMSSGRVDNLAVVMGLHPDYFTSFWRLHYLLLHTDGPLASSWRHYIAIMAAARHQCSYLVGSHMAEFLQTGGDPEWLLGLHRAPEKLRKLSEINKLLAHRPWLITKEHIQALLKTGEHTWSLAELIQALVLLTHCHSLSSFVFGCGILPEGDADGSPAPQAPTPPSEQSSPPSRDPLNNSGGFESARDVEALMERMQQLQESLLRDEGTSQEEMESRFELEKSESLLVTPSADILEPSPHPDMLCFVEDPTFGYEDFTRRGAQAPPTFRAQDYTWEDHGYSLIQRLYPEGGQLLDEKFQAAYSLTYNTIAMHSGVDTSVLRRAIWNYIHCVFGIRYDDYDYGEVNQLLERNLKVYIKTVACYPEKTTRRMYNLFWRHFRHSEKVHVNLLLLEARMQAALLYALRAITRYMT
partner: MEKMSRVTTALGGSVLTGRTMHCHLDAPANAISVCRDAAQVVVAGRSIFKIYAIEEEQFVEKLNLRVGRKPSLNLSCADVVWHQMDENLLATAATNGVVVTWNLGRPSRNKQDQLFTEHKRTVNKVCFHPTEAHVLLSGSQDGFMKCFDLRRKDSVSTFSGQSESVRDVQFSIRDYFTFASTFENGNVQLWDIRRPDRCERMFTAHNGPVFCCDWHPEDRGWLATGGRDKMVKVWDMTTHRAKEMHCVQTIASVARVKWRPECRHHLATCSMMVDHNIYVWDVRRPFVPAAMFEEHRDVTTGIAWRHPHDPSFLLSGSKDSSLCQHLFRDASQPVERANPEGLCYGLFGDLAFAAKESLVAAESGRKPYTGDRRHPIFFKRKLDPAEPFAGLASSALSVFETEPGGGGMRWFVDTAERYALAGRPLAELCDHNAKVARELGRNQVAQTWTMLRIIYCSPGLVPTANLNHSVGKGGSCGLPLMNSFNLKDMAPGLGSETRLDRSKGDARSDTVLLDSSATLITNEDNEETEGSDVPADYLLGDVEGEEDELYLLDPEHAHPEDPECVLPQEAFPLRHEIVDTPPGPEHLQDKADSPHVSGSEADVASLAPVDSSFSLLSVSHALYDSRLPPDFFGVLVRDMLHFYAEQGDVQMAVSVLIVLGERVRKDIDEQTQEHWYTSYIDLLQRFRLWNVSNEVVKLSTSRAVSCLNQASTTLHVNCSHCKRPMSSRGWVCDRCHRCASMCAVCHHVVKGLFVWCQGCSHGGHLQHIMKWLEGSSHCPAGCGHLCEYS

Variants of: B1
Conditions: with wdr24_human WDR24, Q96S15
D406A;D407A was tested, and the “effect of a mutation on the interaction” value was “disrupting interaction strength”.
